Reference: US20180214476

Test system: T1, thrombin cleavable peptide GGLVPRGSGGC
T1 sequence: GGLVPRGSGGC

With thrombin the “cleavage of the peptide by thrombin, LCMS analysis” value was “the peptides were efficiently cleaved after 12 h incubation with 1 U mL^-1 thrombin in Tris buffer”.
